Measured values from article PMC5095173, “Disulfide-activated protein kinase G Iα regulates cardiac diastolic relaxation and fine-tunes the Frank–Starling response” (Nature Communications, 2016).

B1: Stk10 pS13 (protein, UniProt E9PTG8 1-967, looked up)
Serine/threonine-protein …: MAFANFRRILRLSTFEKRKSREYEHVRRDLDPNDVWEILGELGDGAFGKVYKAKNKETGALAAAKVIETKSEEELEDYIVEIEILATCDHPYIVKLLGAYYYDGKLWIMIEFCPGGAVDAIMLELDRGLTEPQIQVVCRQMLEALNFLHGKRIIHRDLKAGNVLMTLEGDIRLADFGVSAKNLKTLQKRDSFIGTPYWMAPEVVLCETMKDAPYDYKADIWSLGITLIEMAQIEPPHHELNPMRVLLKIAKSDPPTLLTPSKWSTEFRDFLKIALDKNPETRPSAAQLLQHPFVSTVTSNKALRELVAEAKAEVMEEIEDGKEDGSEKDAVSAVPPPVNHTQDSSANGTQPSLNSDKLLQDSSTPLPPSQPQEPVNGPCNQPSGDGSPQNTSPADEVSKNDNGLKVPVPLRKSRPLSVDARIQVTEEKQITDQAENPSSAASKPPKVNQSRPNSSALETLGVETLANGGLELPGSVTPNHSKRASDCSNLSTSESMDYGTSLSADLSLNKETGSLSLKGSKLHNKTLKRTRRFVVDGVEVSITTSKIISEDEKKDEEMRFLRRQELRELRLLQKEEHRNQTQLSTKHELQLEQMHRRFEQEINAKKKFYDVELENLERQQKQQVEKMEQDHSVRRREEAKRIRLEQDRDYARFQEQLKQMKKEVKRSIEKALRKQRQESMRMGQDSHTQKKQRLDRDFVAKQKEDLELAMKKLTAENRREICDKERDCLNKKQELLRDREAALWEMEEHQLQERHQLVKQQLKDQYFLQRHDLLRKHEKEREQMQRYNQRMMEQLKVRQQQEKARLPKIQRSDGKTRMAMYKKSLHINGAGSASEQREKVKQFSQQEEKRQKAERLQQQQKHENQMRDMVAQCESNMNELQQLQNEKCHLLVEHETQKLKALDESHNQSLKEWRDKLRPRKKALEEDLNQKKREQEMFFRLSEEAETRPTTPNRASKFFPYSSGDAS
modifications: phosphorylated at S13
B2: Smpx pT40 (protein, UniProt Q925F0 1-85, looked up)
Small muscular protein: MSKQPISNVRSIQANINIPMGAFRPGAGQPPRRKESTPGTAEGAPATPEEKKPVPGMKKFPGPVVNLSEIQNVKSELKYVPKGEQ
modifications: phosphorylated at T40
B3: Arhgap35 pS1150 (protein, UniProt Q91YM2 1-1499, looked up)
Rho GTPase-activating protein …: MMMARKQDVRIPTYNISVVGLSGTEKEKGQCGIGKSCLCNRFVRPSADEFHLDHTSVLSTSDFGGRVVNNDHFLYWGEVSRSLEDCVECKMHIVEQTEFIDDQTFQPHRSTALQPYIKRAAATKLASAEKLMYFCTDQLGLEQDFEQKQMPDGKLLVDGFLLGIDVSRGMNRNFDDQLKFVSNLYNQLAKTKKPIVVVLTKCDEGVERYIRDAHTFALSKKNLQVVETSARSNVNVDLAFSTLVQLIDKSRGKTKIIPYFEALKQQSQQIATAKDKYEWLVSRIVKNHNENWPSVSRKMQASPEYQDYVYLEGTQKAKKLFLQHIHRLKHEHIERRRKLYLAALPLAFEALIPNLDEVDHLSCIKAKKLLETKPEFLKWFVVLEETPWDATSHIDNMENERIPFDLMDTVPAEQLYETHLEKLRNERKRAEMRRAFKENLETSPFITPGKPWEEARSFIMNEDFYQWLEESVYMDIYGKHQKQIIDRAKEEFQELLLEYSELFYELELDAKPSKEKMGVIQDVLGEEQRFKALQKLQAERDALILKHIHFVYHPTKETCPSCPACVDAKIEHLISSRFIRPSDRNQKNSLSDLNIDRINLVILGKDGLARELANEIRALCTNDDKYVIDGKMYELSLRPIEGNVRLPVNSFQTPTFQPHGCLCLYNSKESLSYVVESIEKSRESTLGRRDNHLVHLPLTLILVNKRGDTSGETLHSLIQQGQQIASKLQCVFLDPASAGIGYGRNINEKQISQVLKGLLDSKRNLNLVSSTASIKDLADVDLRIVMCLMCGDPFSADDVLSPVLQSQTCKSSHCGSSNSVLLELPIGLHKKRIELSVLSYHSSFSIRKSRLVHGYIVFYSAKRKASLAMLRAFLCEVQDIIPIQLVALTDGAIDVLDNDLSREQLTEGEEIAQEIDGRFTSIPCSQPQHKLELFHPFFKDVVEKKNIIEATHMYDNVAEACSTTEEVFNSPRAGSPLCNSNLQDSEEDVEPPSYHLFREDATLPSLSKDHSKFSMELEGNDGLSFIMSNFESKLNNKVPPPVKPKPPVHFDITKDLSYLDQGHREGQRKSMSSSPWMPQDGFDPSDYAEPMDAVVKPRNEEENIYSVPHDSTQGKIITIRNINKAQSNGSGNGSDSEMDTSSLERGRKVSAVSKPVLYRTRCTRLGRFASYRTSFSVGSDDELGPIRKKEEDQASQGYKGDNAVIPYETDEDPRRRNILRSLRRNTKKPKPKPRPSITKATWESNYFGVPLTTVVTPEKPIPIFIERCIEYIEATGLSTEGIYRVSGNKSEMESLQRQFDQDHNLDLAEKDFTVNTVAGAMKSFFSELPDPLVPYSMQIDLVEAHKINDREQKLHALKEVLKKFPKENHEVFKYVISHLNKVSHNNKVNLMTSENLSICFWPTLMRPDFSSMDALTATRSYQTIIELFIQQCPFFFYNRPISEPPGAAPGSPSAMAPTVPFLTSTPATSQPSPPQSPPPTPQSPMQPLLSSQLQAEHTL
modifications: phosphorylated S1150
B4: Ppp1r12a pT697 (protein, UniProt Q10728 1-1032, looked up)
Protein phosphatase 1 …: MKMADAKQKRNEQLKRWIGSETDLEPPVVKRQKTKVKFDDGAVFLAACSSGDTDEVLKLLHRGADINYANVDGLTALHQACIDDNVDMVKFLVENGANINQPDNEGWIPLHAAASCGYLDIAEFLIGQGAHVGAVNSEGDTPLDIAEEEAMEELLQNEVNRQGVDIEAARKEEERIMLRDARQWLNSGHISDVRHAKSGGTALHVAAAKGYTEVLKLLIQAGYDVNIKDYDGWTPLHAAAHWGKEEACRILVDNLCDMETVNKVGQTAFDVADEDILGYLEELQKKQNLLHSEKRDKKSPLIESTANMENNQPQKTFKNKETLIIEPEKNASRIESLEQEKADEEEEGKKDESSCSSEEDEEDDSESEAETDKTKPMASVTNAHTASTQAAPAAVTTPTLSSNQGTPTSPVKKFPTSTTKISPKEEERKDESPASWRLGLRKTGSYGALAEITASKEAQKEKDTAGVIRSASSPRLSSSLDNKEKEKDNKGTRLAYVAPTIPRRLGSTSDIEEKENRESSNLRTSSSYTRRKWEDDLKKNSSINEGSTYHRSCSFGRRQDDLISCSVPSTTSTPTVTSAAGLQKSFLSSTSTTAKTPPGSSPAGTQSSTSNRLWAEDSTEKEKDSAPTAATILVAPTVVSAAASSTTALTTTTAGTLSSTSEVRERRRSYLTPVRDEESESQRKARSRQARQSRRSTQGVTLTDLQEAEKTIGRSRSTRTREQENEEKDKEEKEKQDKEKQEEKKESEVSREDEYKQKYSRTYDETYARYRPVSTSSSSTPSSSSLSTLGSSLYASSQLNRPNSLVGITSAYSRGLTKDNEREGEKKEEEKEGEDKSQPKSIRERRRPREKRRSTGVSFWTQDSDENEQERQSDTEDGSSKRDTQTDSVSRYDSSSTSSSDRYDSLLGRSASYSYLEERKPYGSRLEKDDSTDFKKLYEQILAENEKLKAQLHDTNMELTDLKLQLEKATQRQERFADRSLLEMEKRERRALERRISEMEEELKMLPDLKADNQRLKDENGALIRVISKLSK
modifications: phosphorylated at T697
B5: Plcg1 pS1233 (protein, UniProt P10686 2-1290, looked up)
1-phosphatidylinositol …: AGVGTPCANGCGPSAPSEAEVLHLCRSLEVGTVMTLFYSKKSQRPERKTFQVKLETRQITWSRGADKIEGSIDIREIKEIRPGKTSRDFDRYQEDPAFRPDQSHCFVILYGMEFRLKTLSLQATSEDEVNMWIKGLTWLMEDTLQAATPLQIERWLRKQFYSVDRNREDRISAKDLKNMLSQVNYRVPNMRFLRERLTDFEQRSGDITYGQFAQLYRSLMYSAQKTMDLPFLETNTLRTGERPELCQVSLSEFQQFLLEYQGELWAVDRLQVQEFMLSFLRDPLREIEEPYFFLDELVTFLFSKENSVWNSQLDAVCPETMNNPLSHYWISSSHNTYLTGDQFSSESSLEAYARCLRMGCRCIELDCWDGPDGMPVIYHGHTLTTKIKFSDVLHTIKEHAFVASEYPVILSIEDHCSIAQQRNMAQHFRKVLGDTLLTKPVDIAADGLPSPNQLKRKILIKHKKLAEGSAYEEVPTSVMYSENDISNSIKNGILYLEDPVNHEWYPHYFVLTSSKIYYSEETSSDQGNEDEEEPKEASGSTELHSSEKWFHGKLGAGRDGRHIAERLLTEYCIETGAPDGSFLVRESETFVGDYTLSFWRNGKVQHCRIHSRQDAGTPKFFLTDNLVFDSLYDLITHYQQVPLRCNEFEMRLSEPVPQTNAHESKEWYHASLTRAQAEHMLMRVPRDGAFLVRKRNEPNSYAISFRAEGKIKHCRVQQEGQTVMLGNSEFDSLVDLISYYEKHPLYRKMKLRYPINEEALEKIGTAEPDYGALYEGRNPGFYVEANPMPTFKCAVKALFDYKAQREDELTFTKSAIIQNVEKQDGGWWRGDYGGKKQLWFPSNYVEEMINPAILEPEREHLDENSPLGDLLRGVLDVPACQIAIRPEGKNNRLFVFSISMPSVAQWSLDVAADSQEELQDWVKKIREVAQTADARLTEGKMMERRKKIALELSELVVYCRPVPFDEEKIGTERACYRDMSSFPETKAEKYVNKAKGKKFLQYNRLQLSRIYPKGQRLDSSNYDPLPMWICGSQLVALNFQTPDKPMQMNQALFMAGGHCGYVLQPSTMRDEAFDPFDKSSLRGLEPCVICIEVLGARHLPKNGRGIVCPFVEIEVAGAEYDSTKQKTEFVVDNGLNPVWPAKPFHFQISNPEFAFLRFVVYEEDMFSDQNFLAQATFPVKGLKTGYRAVPLKNNYSEDLELASLLIKIDIFPAKENGDLSPFSGTSLRERASDASSQLFHVRAREGSFEARYQQPFEDFRISQEHLADHFDSRERRAPRRTRVNGDNRL
modifications: phosphorylated at S1233
B6: Ppp1r2 pT21 (protein, UniProt P50411 2-205, looked up)
Protein phosphatase inhibitor …: AASTASHRPIKGILKNKTSTTSSVVASAEQPRRTVEEELSKKSQKWDEMNILATYHPADKDYGLMKIDEPDTPYHNMIGDDEDVCSDSEGNEVMTPEILAKKLAAAEGSEPKFRTREQESSGEEDNDLSPEEREKKRQFEMKRKLHYNEGLNIKLARQLISKDLHDDDEDEEMSETADADSMNIEESNQGSTAGDHLQHKSQSS
modifications: phosphorylated at T21
B7: Ndrg2 pS332 (protein, UniProt Q8VBU2 2-371, looked up)
Protein NDRG2: AELQEVQITEEKPLLPGQTPEAAKEAELAARILLDQGQTHSVETPYGSVTFTVYGTPKPKRPAIFTYHDVGLNYKSCFQPLFQFGDMQEIIQNFVRVHVDAPGMEEGAPVFPLGYQYPSQDQLADMIPCILQYLNFSTIIGVGVGAGAYILSRYALNHPDTVEGLVLINIDPNAKGWMDWAAHKLTGLTSSIPEMILGHLFSQEELSGNSELIQKYRSLITHAPNLENIELYWNSYNNRRDLNFERGGEMTLKCPVMLVVGDQAPHEDAVVECNSKLDPTQTSFLKMADSGGQPQLTQPGKLTEAFKYFVQGMGYMASSCMTRLSRSRTASLTSAASIDGSRSRSRTLSQSSESGTLPSGPPGHTMEVSC
modifications: phosphorylated at S332

What follows are molecules tested on PKGIα (analogue-sensitive C42S/M438G), cGMP-activated (assay: Chemical genetic phosphoproteomic screen, cGMP-activated PKGIα C42S/M438G versus unactivated control). Conditions: Group 1 (cGMP-activated) vs Group 3 (control).
Assay type: biochemical, human PKGIα; substrates in rat heart homogenate
Outline: (§1)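 Substrates in rat left-ventricle homogenate (20 mg ml) are labelled by engineered Met438Gly PKGIα given a bulky N6-alkylated ATPγS analogue, either as disulfide-activated M438G (oxidized, DTT-free) or as cGMP-activated C42S/M438G. Covalent capture and LC–MS/MS identify sites relative to unactivated kinase.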

Molecule | log2 fold changes
B1 | 0.7023
B2 | 0.3577
B3 | 0.1001

Same assay, conditions: control = PKGIα C42S/M438G

Molecule | log2 fold change cGMP vs Control
B4 | 0.8734
B5 | 4.5
B6 | 5.158
B7 | 3.419

What follows are molecules tested on PKGIα (analogue-sensitive M438G), disulfide-activated (assay: Chemical genetic phosphoproteomic screen, disulfide-activated PKGIα M438G versus unactivated control). Conditions: Group 2 (disulfide-activated) vs Group 3 (control).
Assay type: biochemical, human PKGIα; substrates in rat heart homogenate
Outline: as §1

Molecule | log2 fold changes
B1 | 0.1825
B2 | 1.906
B3 | 0.2658

Same assay, conditions: control = PKGIα C42S/M438G

Molecule | log2 fold change Disulfide vs Control
B4 | 0.1684
B5 | 1.819
B6 | 1.627
B7 | 1.914
